Laboratory results taken from the DeepSol protein solubility set.

Assay: soluble on expression in E. coli; label from the status in PepcDB or PDB records

Sequence | soluble on expression in E. coli
MTTTSAFMLNVRLDNVAVVAIDVPGEKVNTLKAEFATQVRAILKQIRENKALQGVVFISAKADNFIAGADINMIGHCQNAQEAETLARQGQQLMAEIQALPVPVIAAIHGACLGGGLEMALACHRRICTDDVKTVLGLPEVQLGLLPGSGGTQRLPRLVGVSTALDMILTGKQLRARQALKAGLVDDVVPQTILLEAAVELAKKERLAQRTLPVRERILAGPLGRALLFRLVRKKTAQKTQGNYPATERIIDVIETGLAQGSSSGYDAEARAFGELAMTPQSQALRAIFFASTEVKKDPGSDAPPGPLNSVGILGGGLMGGGIAWVTACKGGLPVRIKDINTQGINHALKYSWDLLETKVRRRHIKASERDKQLALISGSTDYRGFSHRDLVIEAVFEDLPLKQQMVAEVEQNCAAHTIFASNTSSLPIGDIAANAARPEQVIGLHFFSPVEKMPLVEVIPHASTSAQTIATTVKLAKKQGKTPIVVSDKAGFYVNRILAPYINEAIRMLTEGERVEHIDAALVKFGFPVGPIQLLDEVGIDTGTKIIPVLEAAYGERFSAPANVVASILNDDRKGRKNGRGFYLYGEKGRKSKKQVDPAIYKLIGVQGQSRLSAQQVAERCVMLMLNEAARCFDEKVIRSARDGDIGAVFGIGFPPFLGGPFRYMDALGPGEMVATLQRLAALYGPRYAPCEQLVRMAERREHFWTNGETDQGN | not soluble
MKKDIFYCEQWSYGYKKLHKPFSEKQAEEKHLKGELYTAVIGSATQPEYVITLREEVGFFSVHFFDKFGRDYLTHQFQKYSNSNYYFLSMAVWRDYITLESHDLAEGYTYFFNENTDDCYVLKEDFINNERYEKTELYSQKDKVILFPKFGEYDLVLNPDII | not soluble
MGSDKIHHHHHHMSFGVNRDESSAFCQRAFEAENWRLAASAGLAPTLVAQSIDGRCYLSPLLEDGGWQQRYQEVPLSQITCDAAFFTSPGQTHAGSDREPDGLTHTTRLLLDLLLGLQALPVPANVKGFTTQWQDYETALDASQSHWARNPRWQEAYQALAAEFTEVEAAMARLDAMGLSCQYSHRDLTPHNLLCHQGKLFCIDFEYACASHPLWDLAAVLASHNLPGRERRDLMDAYLYAHPQLESSMSSRVVDAVALHWYFGAIWALLMAGQSGDDDYLCWFHRYLQLAKS | not soluble
MGSDKIHHHHHHMSPEPNGDAVSIILETEGPMTAAPKTVRSVERTLQILELMNRAAVVRVQYLAEQIGLPAPTVVRLLETLVAAGYVRKIGRQAGYCVTEKVAALGAGHHGLPQVFDVAREAAEDLTRRTLWPTALATLDVDALVIRFSTIPMSPLSHYQSTINRRMTLLDYAHGRAYLGFCPTEERQHLVALLQQTAGSVEEARAIGERAQSVVALTRASGFGERTGNIQPETHSLALPLRMGAKLVGTLGITYFAKAKVDVSALKSDLRAAAEACTSGTAYRAPASSG | not soluble
MRLILLALLALVFPAVAQEDMPAKVWLEKMSQALKEKEFKASIIQLQADHIRPLVYLHGKVNNQEVAFLEYLNGPPKNAVRVGNRVTFIEHDQPAYSILSNHIQGVWPAAFSSQMSDLEVGYQFVMGGRTRIAGRPGQMIRLLPNDEYRYGFQIWLDMDTYLPLRYDMLTQDKQLLEQLMVIELIEFSEPPSILQEAYKQEWPAVIDQAERQDGQNWQFSWLPAGFSVVVRDHHRLIGSHEAVEYIALTDGLANISIYVARAGSTPLPEELITRNGLSLVAEKVGNAEVVAVGKVPTETLARIAKSLMLK | not soluble
MIKDVHRCFVIACIPGKKPYTLALSDFISATAACFKSGIPLKTLKESLENMKETYFRPLKVEEFELLRTWLTLVYKTLKEVLFPLTENKRGICDTDDSIYDEFVKSIVTAIREGYSMEKIRLEQVVTNTKTQPRTEFESALLSQSTRIVVQTVQIAKEFSSEQ | not soluble
GEDPAIQVTGARGASVDMSTLDAVTTALDKEHLSHKSIAFENGSILVRFNDTDTQISARDVISEALGKDKIVALNLAPSTPDWLEAIGASPLKLGLDLRGGVHFLMEVDMDAAMEKLVGQQEEAFRSELRDAKIRYRAIRPSGKEGVEVLLRDEEQLAEAKRTLTKNHPDMNFVESDSNGRYALIATFTEQRLQEIRNYAVEQNITILRNRVNELGVAEPLVQRQGASRIVVELPGVQDTARAKEILGATATLEFREVDDKADLAAAANGRAPAGSEIKQDRDGRPVVLKKRVILSGASITDASSSVDEYGRPQVNISLDSEGGNKMSAFSKKNIGKLMATVFAEYKDSGRKTPEGKVILTKHEEVINQATIQSALGRNFRITGIDSAAEAHN | not soluble
MIARYQTPEMARLWSEESRYRMWARVEAYALEAWEALGEVPKGLSARLLAKLEEKPLDGAFARRVAELEAVTRHDLVAFTRALAEWTGDEEVGRYLHLGLTSSDIVDTAQNALLVEALGLVLEELKGVEEALKALALRHKHTPAIARTHGVHAEPTSFGLRFLFFLAAFQRDEERLKRARETIGVAMLSGSVGNYAHVPPEVEAHVASRLGLRPEPLSTQVVPRDRHAEVMAALAILGGNIERVAVELRHLQRTEVLEAQEPFHEGQTGSSSMPHKKNPVGLENLTGVARLLRGYLFPALEDIALWHERDISHSSVERVILPDATTLAHYALRRLKGILEGLEVFEENLARNLDLTRGLVYSQQVLNALIARGLSRNKAYALVQRNALRSWKEGKSFLELLEADPENPLKGKELRALFDPKPFLRHVDAIYARFGL | soluble
MGSDKIHHHHHHMGSLEQRRLEQDKRPDDVRDEYDRDEARLIHSAAFRRLQSKTQVLGLGESDFYRTRLTHSMEVAQIGRGIVQYLSKNKKFAEYHEHLPNTSLITAICLAHDIGHPPFGHGGEVALNYCMREHGGFEGNGQTLRILGKLDKYTGEHGLNPTRRMLLGILKYPVAYSELVNEKAYEQVPDKNAPYWLFEARMQKPPKCYHDCDQEIVDFIFDGFAREELAKFTQTEQPIDKDEPEKPLHKKSLYKSLDCTIMNLADNISYSLHDFEDALSLGMITQRHWREHFEGKEALFNDLAKQLVRNDLNFDLITVNLFHKESHCRKEAIGSLVNLMITNAIIEKNQSGCENPLLSLEVKLAPQIEKLRQHIFDLVCEQVIFDENVQQLEFKGQKLVIELFQTLAKDPNRFLPKPTRERLKKAGEGLEGEHKKSAQLRVICDFVSGMTDDYATKFYEKLFTPSKGSIFDRL | not soluble
TLAAKAAEIHPTSLDTRLDVAAAPAELQQVAQSFNAMLERLDDGYQRLQQFSADLAHEIRTPIGSLMGHGQVALRQPRSNEEYQALIASNQEELERIARMVESILFLARADDVRAAVERSRLDLGEELRRQAEYFEGLAEERGLSLDVQVSGQLRADPQLFRRALSNLLANAIRYASADSLIEVRGLRRSGEFLLSVENACDRLPAEPLSRLFDRFYRGDAARSDAQSSGLGLAIVQAIMRLHGGRAEASAPAPGRIRFDLAFPAQD | not soluble
MSLKALHFGAGNIGRGFIGKLLADAGIQLTFADVNQVVLDALNARHSYQVHVVGETEQVDTVSGVNAVSSIGDDVVDLIAQVDLVTTAVGPVVLERIAPAIAKGQVKRKEQGNESPLNIIACENMVRGTTQLKGHVMNALPEDAKAWVEEHVGFVDSAVDRIVPPSASATNDPLEVTVETFSEWIVDKTQFKGALPNIPGMELTDNLMAFVERKLFTLNTGHAITAYLGKLAGHQTIRDAILDEKIRAVVKGAMEESGAVLIKRYGFDADKHAAYIQKILGRFENPYLKDDVERVGRQPLRKLSAGDRLIKPLLGTLEYGLPHKNLIEGIAAAMHFRSEDDPQAQELAALIADKGPQAALAQISGLDANSEVVSEAVTAYKAMQEGGSHHHHHH | soluble
MFLVVGQGNPGERYARTRHNLGFMVLDRLGLSFRPRGEALVAEAEGGLFLKPLTYYNLTGRAVAPLARFYKIPPERILVVHDEMDLPLGRIRFKAGGSAAGNRGVLSIEEALGTRAFHRLRLGIGKPPDPSRGAEYVLSPFREEELPVVERVLEAAKEAVWCWVREGLPPCAGRFNGLDLSLG | soluble
MISLPIDAVVPALRQALGAQHQAVLEAPPGAGKTTRVPLALLDEPWLAGQRILMLEPRRLAARAAAERLAAELGEKVGETVGYRIRLESRVGPKTRIEVVTEGILARRLQDDPALDGVGLVIFDEFHERSLDADLALALTLNGRELLRDEPPLKVLVMSATLEGERLAALLGEAPVVRSEGRMFPVDIRWGRPAQPGEFIEPRVQQAVLQALAEESGSVLVFLPGQAEIRRVHEGLREALGGRPEVLLCPLHGELDLAAQRAAIEPASRGTRKVVLATNIAETSLTIDGVRVVIDAGLARVPRFDPGSGMTRLETQRISRASATQRAGRAGRLEPGVCYRLWSESQHEQLPAYGTAEILQADLAGLALQLARWGVAPEELAWLDAPPAAAYAQARELLGRLGALNASGALSAHGQAMAELPTHPRIAHLLLRGQALGLGELACDVAALLGERDIQRGGGADLHSRLALLAGEARTGASRGAVQRARQLARQFRGYLRGAASEAVVDPGHPRWLGCLLAFAYPDRIARQRRAGGGDYRLANGRAAQFGEPDSLMKQPWLVIADLGSRQGQREERIYLAAELDPRLFDTVLAEQVSQRDELQWDEREGVLRAERQRRVGELVLSSEALPGLDEAARSQALLGLVRRKGLELLPWTPELRQWQARIGLLRRLDLEDKGESEWPDVSDAALLERLEEWLPAYLGKVTRLAHFANLDLASILAGLLPWPLPQRLDEWAPKTLEVPSGSRIRLDYSETPPILAVRLQELFGLGDTPRIAQGRLAVKLHLLSPAHRPVQVTQDLANFWRSTYAEVRKDLKGRYPKHYWPDDPLVAEATARAKPR | not soluble
MSLGGDRFYDLISAVHKSIRGSAPDAALYWYARIITAGGDPLYVARRLLAIASEDIGNADPRAMQVALSAWDCFTRVGAAEGERAIAQAIVYLAVAPKSNAVYQAFNAAKALAKQAPDYDVPRHLTNAPTQLLKELGNHAEYRYAHDEPNAYAAGENYFPEPLKDTRFYFPGARGMEIKIKEKLDWLRNLDQQSENIREGHHHHHH | soluble
LAFVGLTIAIVVTETALLFRRYTALKPADLTRLINSENALVVDLSPSSDFEKGHIAGSRSVVESKFDPESNKLLLSAKQSPLVVVCRNGHISAAAAKRLKNAGFEKVYWLDGGIATWKMAEMPLIK | not soluble
MGSDKIHHHHHHMTLPISVFIITKNEEKHIAKTLASVKDMDEVILVDSGSTDKTLSIAQQFGATIFSHEWQGYAKQKQYAMSLCRNEWVLNLDGDEAINPQLIAAFKEIIEQDKADSVRFWRNDIFIGKPLSSLSKKPNNHRLYKKSKSFFDDSRLAHESATVDGKEIFINQVFDHYGYDSIAAITNKNNTYSTLKADEKFVKGKSFSHLKLFLIFPLVFIKEYLLQRKLFSGRRGFILAVMEAYYAFLKEAKLFENHQNKPN | not soluble
MSLEKTTRMNYLFDFYQSLLTSKQKSYMSLYYLDDFSLGEIAEEYEVSRQAVYDNIKRTEAMLEQYEEKLLLLKKFQERKEMFNKLKELASGSKEEEEITALIEALEKLD | soluble
GKLKKKGYLRIVTTQGSLNIELHADMAPRACDSFLRLCAVKYFDDTIFHRCIRNFMIQGGRAELRQPSKKKEVQQSPRSISGFPGGAPFEDEFDNRLVHQGIGVLSMANDGKHSNLSEFFITFKSCEHLNNKHTIFGRVVGGLDVLRQWEKLETDKKDKPLKPPKVEEIIVFKNPFEDARKEMEDEKREEEEKEKKKLENA | soluble
MDNDGINADPMELEKFSQLAHHWWDPNSEFKPLHEINPLRLNYIDEIIGGLSEKTVIDVGCGGGILSESMAARGASVTGIDLSDKALKVAKLHLLESGNQVDYRKITVEALATERPRYYDVVTCMEMLEHVPDPASVIQSCARLVKSGGWVFFSTLNRNPKSYLYAIIGAEYILRLLPRGTHEYAKFIKPSELAHMARSAGLMESGIVGMTYNPITKVYALEADTSVNYIMAFRA | not soluble
